Tests used:
[1] = target: T1, human antithrombin β complexed with heparin (human ATβH) (human, UniProt P01008 33-464, lacks glycosylation at Asn135 (β glyco-isoform); complexed with heparin); assay: cell-based or functional assay
[2] = target: rabbit antithrombin β complexed with heparin (rATβH) (rabbit); assay: cell-based or functional assay
[3] = target: cynomolgus antithrombin (ATβH species homolog, in Cyno plasma) (Cyno); assay: cell-based or functional assay
[4] = target: T1, human antithrombin β complexed with …; assay: panning and screening of human antibody libraries against human ATβ in complex with heparin

T1 sequence (P01008 33-464, one chain of several): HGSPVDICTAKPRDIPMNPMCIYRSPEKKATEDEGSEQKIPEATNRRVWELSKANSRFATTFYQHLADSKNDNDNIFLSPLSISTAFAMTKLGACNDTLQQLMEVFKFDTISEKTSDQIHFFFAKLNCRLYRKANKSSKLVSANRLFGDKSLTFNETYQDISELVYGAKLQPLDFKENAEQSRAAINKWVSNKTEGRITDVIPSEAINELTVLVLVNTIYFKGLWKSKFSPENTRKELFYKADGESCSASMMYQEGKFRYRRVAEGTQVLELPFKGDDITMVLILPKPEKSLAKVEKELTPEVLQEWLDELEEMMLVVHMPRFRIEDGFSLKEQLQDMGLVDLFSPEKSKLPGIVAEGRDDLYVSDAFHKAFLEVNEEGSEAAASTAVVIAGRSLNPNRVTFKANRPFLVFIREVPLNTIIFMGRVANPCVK

| Binder | EC50, FXa-Activated Clotting Assay, human HEM A plasma [1] | EC50, FXa-Activated Clotting Assay, human normal plasma [1] | binding result [4] | other results |
| --- | --- | --- | --- | --- |
| TPP2009 hIgG1 (antibody, V domains shown) VH: EVQLLESGGGLVQPGGSLRLSCAASGFTFSAYRMGWVRQAPGKGLEWVSRIYSSGGRTRYADSVKGRFTISRDNSKNTLYLQMNSLRAEDTAVYYCAREKASDLSGSFSEALDYWGQGTLVTVSS VL: AQSVLTQDPAVSVALGQTVRITCQGDSLRSYYASWYQQKPGQAPVLVIYGKNNRPSGIPDRFSGSSSGNTASLTITGAQAEDEADYYCNSRDSSGNHLVFGGGTKLTVLG | 4.7 nM | 10.5 nM |  | EC50, dPT (diluted prothrombin time), human HEM A plasma [1]: 9 nM; EC50, FXa-Activated Clotting Assay, rabbit HEM A plasma [2]: 10.5 nM; EC50, FXa-Activated Clotting Assay, rabbit normal plasma [2]: 25.7 nM; EC50, FXa-Activated Clotting Assay, cyno HEM A plasma [3]: 4.3 nM; EC50, FXa-Activated Clotting Assay, cyno normal plasma [3]: 21.5 nM; EC50, dPT (diluted prothrombin time), cyno HEM A plasma [3]: 13.9 nM |
| TPP2803 IgG2, Germlined and converted to IgG2 (antibody, V domains shown) VH: EVQLLESGGGLVQPGGSLRLSCAASGFTFSSYRMSWVRQAPGKGLEWVSRIYSSGGRTRYADSVKGRFTISRDNSKNTLYLQMNSLRAEDTAVYYCAREKASDLSGSFSEALDYWGQGTLVTVSS VL: SSELTQDPAVSVALGQTVRITCQGDSLRSYYASWYQQKPGQAPVLVIYGKNNRPSGIPDRFSGSSSGNTASLTITGAQAEDEADYYCNSRDSSGNHLVFGGGTKLTVLG | 2.7 nM | 2.4 nM |  |  |
| TPP-2016 hIgG (antibody, V domains shown) VH: EVQLLESGGGLVQPGGSLRLSCAASGFTFSKYRMDWVRQAPGKGLEWVSRIGPSGGKTTYADSVKGRFTISRDNSKNTLYLQMNSLRAEDTAVYYCAREKTSDLSGSYSEALDYWGQGTLVTVSS VL: DIQMTQSPATLSVSPGERATLSCRASQNINRNLAWYQQKPGRAPRLLIHTASTRAPGVPVRITGSGSGTEFTLTISSLEPEDFAVYFCQQYASPPRTFGQGTKVEIKR |  |  | binds |  |
| TPP-2019 hIgG (antibody, V domains shown) VH: EVQLLESGGGLVQPGGSLRLSCAASGFTFSRYAMYWVRQAPGKGLEWVSRISPSGGKTHYADSVKGRFTISRDNSKNTLYLQMNSLRAEDTAVYYCARLSQTGYYPHYHYYGMDVWGQGTTVTVSS VL: DIQMTQSPATLSLSPGERATLSCRASQRVSSSYLTWYQQKPGQAPRLLIYGASSRATGIPDRFSGSGSGTDFTLTISRLEPEDFAVYYCQQYDSTPPLTFGGGTKVEIKR |  |  | binds |  |
